Test results published in PMC2115537 (The Journal of Cell Biology, 1989).

Biological target: F-actin (rabbit skeletal muscle actin filaments) (rabbit, UniProt P68135 1-377)
Experiment: co-sedimentation

B1: synapsin I phosphorylated on all three sites (natural protein)
chain: not shown
modifications: phosphorylated on all three sites (sites 1, 2 and 3); 2.6 mol phosphate/mol synapsin I
For B1, the Kd was 1800 nM.

B2: dephosphorylated synapsin I (natural protein)
chain: not shown
With B2 the Kd was 2000 nM.
